Data taken from the supplement of paper PMC9112550, “Optimization of the antimicrobial peptide Bac7 by deep mutational scanning” (BMC Biology, 2022).

System: Escherichia coli TOP10
Assay: shrunken log2 fold change of peptide-encoding DNA abundance (4.5 h post-induction vs induction); higher = less antimicrobial activity (less host growth inhibition)
Details: time post-induction: 4.5 h; library: site-saturation at positions 5, 18, 19, 20
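Note: peptides expressed intracellularly from a pBAD plasmid library in pooled LB shake-flask culture, induced with 0.3% L-arabinose, DNA abundance read by NGS, three biological replicates, DESeq2 with apeglm shrinkage.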

Row | Sequence | shrunken log2 fold change
1 | RRIRVRPPRLPRPRPRPPPCPRP | 0.358
2 | RRIRVRPPRLPRPRPRPPPRPRP | 1.03
3 | RRIRVRPPRLPRPRPRPPQVPRP | 0.377
4 | RRIRVRPPRLPRPRPRPPRGPRP | 0.665
5 | RRIRVRPPRLPRPRPRPPSEPRP | -0.124
6 | RRIRVRPPRLPRPRPRPPSVPRP | 0.129
7 | RRIRVRPPRLPRPRPRPPTFPRP | 0.0282
8 | RRIRVRPPRLPRPRPRPPVHPRP | -0.0509
9 | RRIRVRPPRLPRPRPRPPVMPRP | -0.105
10 | RRIRVRPPRLPRPRPRPPYKPRP | -0.371
11 | RRIRVRPPRLPRPRPRPQASPRP | 0.322
12 | RRIRVRPPRLPRPRPRPQCNPRP | -0.449
13 | RRIRVRPPRLPRPRPRPQCRPRP | -0.167
14 | RRIRVRPPRLPRPRPRPQDVPRP | -0.033
15 | RRIRVRPPRLPRPRPRPQEQPRP | 0.0925
16 | RRIRVRPPRLPRPRPRPQESPRP | -0.0491
17 | RRIRVRPPRLPRPRPRPQEYPRP | 0.0203
18 | RRIRVRPPRLPRPRPRPQFFPRP | -0.0611
19 | RRIRVRPPRLPRPRPRPQGKPRP | 0.00549
20 | RRIRVRPPRLPRPRPRPQHKPRP | -0.483
21 | RRIRVRPPRLPRPRPRPQHTPRP | -0.0855
22 | RRIRVRPPRLPRPRPRPQICPRP | -0.185
23 | RRIRVRPPRLPRPRPRPQIIPRP | -0.299
24 | RRIRVRPPRLPRPRPRPQKQPRP | -0.376
25 | RRIRVRPPRLPRPRPRPQLGPRP | -0.0234

Row | Sequence | shrunken log2 fold change
26 | RRIRVRPPRLPRPRPRPQLIPRP | -0.334
27 | RRIRVRPPRLPRPRPRPQLKPRP | -0.177
28 | RRIRVRPPRLPRPRPRPQMDPRP | -0.297
29 | RRIRVRPPRLPRPRPRPQMFPRP | -0.0716
30 | RRIRVRPPRLPRPRPRPQMYPRP | -0.436
31 | RRIRVRPPRLPRPRPRPQNSPRP | -0.802
32 | RRIRVRPPRLPRPRPRPQNWPRP | 0.0353
33 | RRIRVRPPRLPRPRPRPQNYPRP | -0.285
34 | RRIRVRPPRLPRPRPRPQQFPRP | 0.0811
35 | RRIRVRPPRLPRPRPRPQQGPRP | 0.403
36 | RRIRVRPPRLPRPRPRPQRCPRP | 0.00942
37 | RRIRVRPPRLPRPRPRPQRKPRP | 0.0451
38 | RRIRVRPPRLPRPRPRPQRSPRP | -0.431
39 | RRIRVRPPRLPRPRPRPQSGPRP | -0.0607
40 | RRIRVRPPRLPRPRPRPQSMPRP | 0.229
41 | RRIRVRPPRLPRPRPRPQTVPRP | -0.0217
42 | RRIRVRPPRLPRPRPRPQVCPRP | -0.0138
43 | RRIRVRPPRLPRPRPRPQVRPRP | 0.0179
44 | RRIRVRPPRLPRPRPRPQYPPRP | -0.101
45 | RRIRVRPPRLPRPRPRPQYRPRP | -0.134
46 | RRIRVRPPRLPRPRPRPRAWPRP | 0.086
47 | RRIRVRPPRLPRPRPRPRCCPRP | 0.201
48 | RRIRVRPPRLPRPRPRPRCDPRP | -0.0186
49 | RRIRVRPPRLPRPRPRPRCSPRP | -0.212
50 | RRIRVRPPRLPRPRPRPRDTPRP | -0.0483

Row | Sequence | shrunken log2 fold change
51 | RRIRVRPPRLPRPRPRPRECPRP | 0.175
52 | RRIRVRPPRLPRPRPRPRFDPRP | 0.048
53 | RRIRVRPPRLPRPRPRPRFLPRP | -0.247
54 | RRIRVRPPRLPRPRPRPRFSPRP | -0.17
55 | RRIRVRPPRLPRPRPRPRFYPRP | 0.112
56 | RRIRVRPPRLPRPRPRPRGCPRP | 0.374
57 | RRIRVRPPRLPRPRPRPRIPPRP | 0.183
58 | RRIRVRPPRLPRPRPRPRISPRP | -0.187
59 | RRIRVRPPRLPRPRPRPRIWPRP | 0.468
60 | RRIRVRPPRLPRPRPRPRKCPRP | -0.0338
61 | RRIRVRPPRLPRPRPRPRLCPRP | 0.564
62 | RRIRVRPPRLPRPRPRPRLPPRP | 0.636
63 | RRIRVRPPRLPRPRPRPRMTPRP | 0.265
64 | RRIRVRPPRLPRPRPRPRPQPRP | 0.365
65 | RRIRVRPPRLPRPRPRPRQFPRP | 0.238
66 | RRIRVRPPRLPRPRPRPRRFPRP | 0.309
67 | RRIRVRPPRLPRPRPRPRRKPRP | 0.0637
68 | RRIRVRPPRLPRPRPRPRSSPRP | -0.244
69 | RRIRVRPPRLPRPRPRPRVIPRP | -0.0308
70 | RRIRVRPPRLPRPRPRPRVVPRP | 0.2
71 | RRIRVRPPRLPRPRPRPRWRPRP | 0.587
72 | RRIRVRPPRLPRPRPRPRYRPRP | -0.0212
73 | RRIRVRPPRLPRPRPRPSCKPRP | -0.207
74 | RRIRVRPPRLPRPRPRPSDNPRP | -0.878
75 | RRIRVRPPRLPRPRPRPSDTPRP | -0.54

Row | Sequence | shrunken log2 fold change
76 | RRIRVRPPRLPRPRPRPSKGPRP | -0.276
77 | RRIRVRPPRLPRPRPRPSKQPRP | -0.201
78 | RRIRVRPPRLPRPRPRPSMKPRP | -0.363
79 | RRIRVRPPRLPRPRPRPSNLPRP | -0.586
80 | RRIRVRPPRLPRPRPRPSNSPRP | -0.826
81 | RRIRVRPPRLPRPRPRPSNTPRP | -0.417
82 | RRIRVRPPRLPRPRPRPSPNPRP | -0.271
83 | RRIRVRPPRLPRPRPRPSQIPRP | -0.206
84 | RRIRVRPPRLPRPRPRPSQRPRP | -0.0119
85 | RRIRVRPPRLPRPRPRPSQSPRP | -0.146
86 | RRIRVRPPRLPRPRPRPSRAPRP | 0.152
87 | RRIRVRPPRLPRPRPRPSSDPRP | -0.131
88 | RRIRVRPPRLPRPRPRPSSHPRP | -0.344
89 | RRIRVRPPRLPRPRPRPSTQPRP | -0.0637
90 | RRIRVRPPRLPRPRPRPSVWPRP | 0.102
91 | RRIRVRPPRLPRPRPRPSWYPRP | -0.698
92 | RRIRVRPPRLPRPRPRPSYHPRP | -0.819
93 | RRIRVRPPRLPRPRPRPSYTPRP | -0.27
94 | RRIRVRPPRLPRPRPRPSYWPRP | -0.341
95 | RRIRVRPPRLPRPRPRPTALPRP | 0.388
96 | RRIRVRPPRLPRPRPRPTAPPRP | 0.175
97 | RRIRVRPPRLPRPRPRPTATPRP | 0.272
98 | RRIRVRPPRLPRPRPRPTCGPRP | 0.0207
99 | RRIRVRPPRLPRPRPRPTCIPRP | -0.372
100 | RRIRVRPPRLPRPRPRPTCKPRP | -0.0395

Row | Sequence | shrunken log2 fold change
101 | RRIRVRPPRLPRPRPRPTCTPRP | -0.00861
102 | RRIRVRPPRLPRPRPRPTDFPRP | -0.0704
103 | RRIRVRPPRLPRPRPRPTDNPRP | -0.363
104 | RRIRVRPPRLPRPRPRPTDTPRP | 0.817
105 | RRIRVRPPRLPRPRPRPTEFPRP | -0.143
106 | RRIRVRPPRLPRPRPRPTENPRP | 0.00381
107 | RRIRVRPPRLPRPRPRPTGWPRP | 0.377
108 | RRIRVRPPRLPRPRPRPTHHPRP | 0.586
109 | RRIRVRPPRLPRPRPRPTHRPRP | 0.662
110 | RRIRVRPPRLPRPRPRPTIEPRP | 0.061
111 | RRIRVRPPRLPRPRPRPTNAPRP | -0.211
112 | RRIRVRPPRLPRPRPRPTPHPRP | 0.313
113 | RRIRVRPPRLPRPRPRPTPSPRP | 0.253
114 | RRIRVRPPRLPRPRPRPTRMPRP | 0.0492
115 | RRIRVRPPRLPRPRPRPTRNPRP | 0.0987
116 | RRIRVRPPRLPRPRPRPTRPPRP | 0.822
117 | RRIRVRPPRLPRPRPRPTTPPRP | 0.347
118 | RRIRVRPPRLPRPRPRPTTWPRP | -0.0829
119 | RRIRVRPPRLPRPRPRPTVKPRP | 0.0641
120 | RRIRVRPPRLPRPRPRPTVWPRP | 0.408
121 | RRIRVRPPRLPRPRPRPTWCPRP | 0.216
122 | RRIRVRPPRLPRPRPRPTYYPRP | -0.315
123 | RRIRVRPPRLPRPRPRPVCAPRP | 0.413
124 | RRIRVRPPRLPRPRPRPVCGPRP | 0.211
125 | RRIRVRPPRLPRPRPRPVELPRP | 0.104

Row | Sequence | shrunken log2 fold change
126 | RRIRVRPPRLPRPRPRPVFDPRP | -0.079
127 | RRIRVRPPRLPRPRPRPVFEPRP | -0.0665
128 | RRIRVRPPRLPRPRPRPVFNPRP | -0.392
129 | RRIRVRPPRLPRPRPRPVFVPRP | -0.0229
130 | RRIRVRPPRLPRPRPRPVGSPRP | 0.289
131 | RRIRVRPPRLPRPRPRPVICPRP | -0.0928
132 | RRIRVRPPRLPRPRPRPVIQPRP | -0.336
133 | RRIRVRPPRLPRPRPRPVKCPRP | -0.163
134 | RRIRVRPPRLPRPRPRPVKMPRP | 0.0133
135 | RRIRVRPPRLPRPRPRPVMEPRP | -0.186
136 | RRIRVRPPRLPRPRPRPVMVPRP | -0.166
137 | RRIRVRPPRLPRPRPRPVMYPRP | -0.251
138 | RRIRVRPPRLPRPRPRPVPHPRP | 0.135
139 | RRIRVRPPRLPRPRPRPVPRPRP | -0.00795
140 | RRIRVRPPRLPRPRPRPVPYPRP | -0.0265
141 | RRIRVRPPRLPRPRPRPVQAPRP | -0.0106
142 | RRIRVRPPRLPRPRPRPVQGPRP | 0.0692
143 | RRIRVRPPRLPRPRPRPVRTPRP | 0.103
144 | RRIRVRPPRLPRPRPRPVSPPRP | -0.146
145 | RRIRVRPPRLPRPRPRPVTGPRP | -0.233
146 | RRIRVRPPRLPRPRPRPVVGPRP | 0.126
147 | RRIRVRPPRLPRPRPRPVVLPRP | 0.0921
148 | RRIRVRPPRLPRPRPRPVWHPRP | 0.119
149 | RRIRVRPPRLPRPRPRPVYTPRP | -0.324
150 | RRIRVRPPRLPRPRPRPVYVPRP | -0.0177
